According to patent US20050085418A1 (CELLTECH R AND D, published 2005):

B1: purified human sclerostin-FLAG® fusion protein (other, UniProt Q9BQB4 24-213, looked up)
chain: QGWQAFKNDATEIIPELGEYPEPPPELENNKTMNRAENGGRPPHHPFETKDVSEYSCRELHFTRYVTDGPCRSAKPVTELVCSGQCGPARLLPNAIGRGKWWRPSGPDFRCIPDRYRAQRVQLLCPGGEAPRARKVRLVASCKCKRLTRFHNQSELKDFGTEAARPQKGRKPRPRARSAKANQAELENAY
notes: Immobilised on CM5 chips (200 and 400 RU) or on anti-FLAG M2 agarose beads; also called FLAG®-Beer; FLAG®-tagged sclerostin; not shown: FLAG tag

Assays:
[1] = biological target: purified human sclerostin-FLAG® fusion protein (human) (UniProt Q9BQB4); experiment: SPR (Biacore), immobilised sclerostin
Noggin-Fc fusion protein [2] = biological target: T1, Noggin-Fc fusion protein (murine, UniProt P97466 28-232, limits assumed); experiment: SPR, chip-immobilised recombinant human sclerostin, graded concentrations of recombinant murine noggin (FIG. 2B)
T1 construct: also called recombinant murine noggin; not shown: Fc portion, captured and detected with anti-human Fc antibodies
T1 sequence (looked up): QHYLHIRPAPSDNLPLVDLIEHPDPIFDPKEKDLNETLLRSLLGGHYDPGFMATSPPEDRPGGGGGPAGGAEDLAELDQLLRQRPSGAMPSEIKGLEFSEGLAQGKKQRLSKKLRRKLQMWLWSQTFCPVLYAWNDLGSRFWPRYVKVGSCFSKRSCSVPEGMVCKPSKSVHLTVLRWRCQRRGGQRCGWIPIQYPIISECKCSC
Experimental: (§1) The running buffer for Biacore analysis was HBS-EP CMD (10 mM HEPES, 150 mM NaCl, 3 mM EDTA, 0.005% polysorbate 20, and 1 mg/ml carboxyl-methyl dextran). […] The data was processed using the Bia-evaluation software by first correcting for background binding in a non-functionalized flow cell and analyzing the resulting binding curves for on/off rates.

[3] = biological target: T2, recombinant murine chordin (murine, UniProt Q9Z0E2 27-948, limits assumed); experiment: SPR, chip-immobilised recombinant human sclerostin, graded concentrations of recombinant murine chordin (FIG. 2A)
T2 sequence (looked up): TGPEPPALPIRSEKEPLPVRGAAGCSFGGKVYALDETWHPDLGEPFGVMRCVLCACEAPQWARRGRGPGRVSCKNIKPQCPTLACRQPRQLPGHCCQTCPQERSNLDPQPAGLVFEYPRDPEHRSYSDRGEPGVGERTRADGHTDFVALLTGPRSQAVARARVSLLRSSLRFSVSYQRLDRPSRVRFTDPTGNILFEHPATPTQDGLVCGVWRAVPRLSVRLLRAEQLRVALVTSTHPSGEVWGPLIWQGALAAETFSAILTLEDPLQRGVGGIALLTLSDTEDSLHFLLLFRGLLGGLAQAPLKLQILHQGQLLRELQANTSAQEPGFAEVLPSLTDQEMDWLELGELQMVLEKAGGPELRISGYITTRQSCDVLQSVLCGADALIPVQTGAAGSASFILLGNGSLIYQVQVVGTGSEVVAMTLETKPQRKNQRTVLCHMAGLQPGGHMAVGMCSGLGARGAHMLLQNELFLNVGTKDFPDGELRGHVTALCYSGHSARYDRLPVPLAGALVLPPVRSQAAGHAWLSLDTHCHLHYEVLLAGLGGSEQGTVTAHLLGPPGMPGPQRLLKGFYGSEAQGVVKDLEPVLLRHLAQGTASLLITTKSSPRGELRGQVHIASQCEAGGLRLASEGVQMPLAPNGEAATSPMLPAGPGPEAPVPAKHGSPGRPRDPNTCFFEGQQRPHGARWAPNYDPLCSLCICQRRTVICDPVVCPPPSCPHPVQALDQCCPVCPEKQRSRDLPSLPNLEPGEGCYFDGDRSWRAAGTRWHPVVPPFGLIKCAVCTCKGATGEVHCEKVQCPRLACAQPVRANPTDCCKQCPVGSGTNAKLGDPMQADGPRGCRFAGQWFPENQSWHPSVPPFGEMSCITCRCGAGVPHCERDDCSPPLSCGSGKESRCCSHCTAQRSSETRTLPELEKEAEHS
Experimental: as §1

[4] = biological target: T2, recombinant murine chordin; experiment: SPR (Biacore), human sclerostin immobilised on the chip, rmChordin injected at 0.62 to 10 ug/ml [box under the left panel]
Noggin-Fc fusion protein [5] = biological target: T1, Noggin-Fc fusion protein; experiment: SPR (Biacore), human sclerostin immobilised on the chip, rmNoggin injected at 0.31 to 10 ug/ml [box under the right panel]
[6] = biological target: B1; experiment: SPR (Biacore), immobilised sclerostin
Experimental: The running buffer for Biacore analysis was HBS-EP CMD (10 mM HEPES, 150 mM NaCl, 3 mM EDTA, 0.005 % polysorbate 20, and 1 mg/ml carboxyl-methyl dextran). […] BMP proteins were diluted in running buffer and injected over the sensor chip using the Biacore 3000 instrumentation. The data was processed using the Bia-evaluation software (Biacore) by first correcting for background binding in a non-functionalized flow cell and analyzing the resulting binding curves for on/off rates.

BMP-5 (ligand)
Kd [1]: < 15 nM

BMP-7 (ligand)
Kd [1]: < 15 nM

BMP-4 (ligand)
Kd [1]: < 15 nM

B1
Kd (Noggin-Fc fusion protein [2]): 2.92 nM
Kd [3]: 1.76 nM
koff [4]: 0.00209 s⁻¹
kon [4]: 1.18e+06 M⁻¹ s⁻¹
koff (Noggin-Fc fusion protein [5]): 0.00435 s⁻¹
kon (Noggin-Fc fusion protein [5]): 1.46e+06 M⁻¹ s⁻¹

B2: BMP-2 (ligand)
chain: QAKHKQRKRLKSSCKRHPLYVDFSDVGWNDWIVAPPGYHAFYCHGECPFPLADHLNSTNHAIVQTLVNSVNSKIPKACCVPTELSAISMLYLDENEKVVLKNYQDMVVEGCGCR
modifications: Disulfide-linked homodimer; one copy of the mature chain is given.
notes: Bought recombinant protein; also called recombinant BMP protein (R&D Systems)
Kd [6]: < 10 nM
